In article PMC7367873, “Dissecting the sequence determinants for dephosphorylation by the catalytic subunits of phosphatases PP1 and PP2A” (Nature Communications, 2020):

B1: CPS1 (protein, UniProt P31327 39-1500, looked up)
Carbamoyl-phosphate synthase …: LSVKAQTAHIVLEDGTKMKGYSFGHPSSVAGEVVFNTGLGGYPEAITDPAYKGQILTMANPIIGNGGAPDTTALDELGLSKYLESNGIKVSGLLVLDYSKDYNHWLATKSLGQWLQEEKVPAIYGVDTRMLTKIIRDKGTMLGKIEFEGQPVDFVDPNKQNLIAEVSTKDVKVYGKGNPTKVVAVDCGIKNNVIRLLVKRGAEVHLVPWNHDFTKMEYDGILIAGGPGNPALAEPLIQNVRKILESDRKEPLFGISTGNLITGLAAGAKTYKMSMANRGQNQPVLNITNKQAFITAQNHGYALDNTLPAGWKPLFVNVNDQTNEGIMHESKPFFAVQFHPEVTPGPIDTEYLFDSFFSLIKKGKATTITSVLPKPALVASRVEVSKVLILGSGGLSIGQAGEFDYSGSQAVKAMKEENVKTVLMNPNIASVQTNEVGLKQADTVYFLPITPQFVTEVIKAEQPDGLILGMGGQTALNCGVELFKRGVLKEYGVKVLGTSVESIMATEDRQLFSDKLNEINEKIAPSFAVESIEDALKAADTIGYPVMIRSAYALGGLGSGICPNRETLMDLSTKAFAMTNQILVEKSVTGWKEIEYEVVRDADDNCVTVCNMENVDAMGVHTGDSVVVAPAQTLSNAEFQMLRRTSINVVRHLGIVGECNIQFALHPTSMEYCIIEVNARLSRSSALASKATGYPLAFIAAKIALGIPLPEIKNVVSGKTSACFEPSLDYMVTKIPRWDLDRFHGTSSRIGSSMKSVGEVMAIGRTFEESFQKALRMCHPSIEGFTPRLPMNKEWPSNLDLRKELSEPSSTRIYAIAKAIDDNMSLDEIEKLTYIDKWFLYKMRDILNMEKTLKGLNSESMTEETLKRAKEIGFSDKQISKCLGLTEAQTRELRLKKNIHPWVKQIDTLAAEYPSVTNYLYVTYNGQEHDVNFDDHGMMVLGCGPYHIGSSVEFDWCAVSSIRTLRQLGKKTVVVNCNPETVSTDFDECDKLYFEELSLERILDIYHQEACGGCIISVGGQIPNNLAVPLYKNGVKIMGTSPLQIDRAEDRSIFSAVLDELKVAQAPWKAVNTLNEALEFAKSVDYPCLLRPSYVLSGSAMNVVFSEDEMKKFLEEATRVSQEHPVVLTKFVEGAREVEMDAVGKDGRVISHAISEHVEDAGVHSGDATLMLPTQTISQGAIEKVKDATRKIAKAFAISGPFNVQFLVKGNDVLVIECNLRASRSFPFVSKTLGVDFIDVATKVMIGENVDEKHLPTLDHPIIPADYVAIKAPMFSWPRLRDADPILRCEMASTGEVACFGEGIHTAFLKAMLSTGFKIPQKGILIGIQQSFRPRFLGVAEQLHNEGFKLFATEATSDWLNANNVPATPVAWPSQEGQNPSLSSIRKLIRDGSIDLVINLPNNNTKFVHDNYVIRRTAVDSGIPLLTNFQVTKLFAEAVQKSRKVDSKSLFHYRQYSAGKAA
B2: TUBB4A (protein, UniProt P04350 1-444, looked up)
Tubulin beta-4A chain: MREIVHLQAGQCGNQIGAKFWEVISDEHGIDPTGTYHGDSDLQLERINVYYNEATGGNYVPRAVLVDLEPGTMDSVRSGPFGQIFRPDNFVFGQSGAGNNWAKGHYTEGAELVDAVLDVVRKEAESCDCLQGFQLTHSLGGGTGSGMGTLLISKIREEFPDRIMNTFSVVPSPKVSDTVVEPYNATLSVHQLVENTDETYCIDNEALYDICFRTLKLTTPTYGDLNHLVSATMSGVTTCLRFPGQLNADLRKLAVNMVPFPRLHFFMPGFAPLTSRGSQQYRALTVPELTQQMFDAKNMMAACDPRHGRYLTVAAVFRGRMSMKEVDEQMLSVQSKNSSYFVEWIPNNVKTAVCDIPPRGLKMAATFIGNSTAIQELFKRISEQFTAMFRRKAFLHWYTGEGMDEMEFTEAESNMNDLVSEYQQYQDATAEEGEFEEEAEEEVA

Key:
[1] = test system: GFP-14-3-3β and its binding proteins; test: GFP-14-3-3β co-IP with LC-MS/MS label-free quantification, untreated versus PP1c-treated; parameters: species or system human; conditions: PP1 vs untreated; LFQ intensities; 3 replicates each
GFP-14-3-3β = GFP-14-3-3β co-IP with LC-MS/MS, untreated GFP-14-3-3β versus GFP control (14-3-3 interactome); assay type: binding, human; conditions: untreated vs GFP; LFQ intensities; 3 replicates each

| Molecule | Difference (log2), PP1 vs untreated [1] [log2] | Difference (log2), untreated vs GFP (GFP-14-3-3β) [log2] |
| --- | --- | --- |
| B1 | 0.4276 | 0.419 |
| B2 | 0.4246 | -1.261 |
